Laboratory results: the RNAGym collection of RNA variant scans (doi:10.1073/pnas.2313332121)
Fewer inactive variants are shown than the library holds.

B1: TPR 5TU (parent)
chain: GGAUCUUCUCGAUCUAACAAAAAAGACAAAUCUGCCACAAAGCUUGAGAGCAUCUUCGGAUGCAGAGGCGGCAGCCUUCGGUGGCGCGAUAGCGCCAACGUUCUCAACUAUGACACGCAAAACGCGUGCUCCGUUGAAUGGAGUUUAUCAUG

Variants of: B1
Assay: polymerase ribozyme fitness, log enrichment relative to wild type (log ratio); higher = more active; in vitro selection for triplet polymerase activity
How it was run: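 One round of in vitro selection, in triplicate, was applied to PCR-built, transcribed mutant libraries of each subunit of a heterodimeric triplet polymerase ribozyme. The steps were annealing with a biotinylated primer, partner subunit and triplets, incubation frozen at −7 °C, gel excision of extended constructs, streptavidin-bead capture and RT-PCR. Fitness is the logarithm, base 2, of genotype enrichment over wild-type enrichment from inverse-variance-weighted replicate averages of Illumina-sequenced inputs and outputs, keeping genotypes with ≥10 input reads and ≥1 read per output.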

Variant | polymerase ribozyme fitness (log ratio)
GGAUCUUCUCGAUCUAACAACAAAGACAAAUCUGCCACAAAGCUUGAGAGCAUCUUCGGAUGCAGAGGCGGCAGCCUUCGGUGGCGCGAUAGCGCCAACGUUCUCAACUAUGACACGCAAAACGCGUGCUCCGUUAAAUGGAGUUUAUCAUG | 0.615
GGAUCUUCUCGAUCUAACAAGAAAGACAAAUCUGCCACAAAGCUUGAGAGCGUCUUCGGAUGCAGAGGCGGCAGCCUUCGGUGGUGCGAUAGCGCCAACGUUCGCAACUAUGACACGCAAAACGCGUGCUCCGUUGAAUGGAGUUUAUCAUG | -0.132
GGAUCUUCUCGAUCUAACAAGAAAGACAAAUCUGCCACACAGCUUGAGAGCAUCUUCGGAUGCAGAGGCGGCAGCCUUCGGUGGCGCGAUAGCGCCAACGUUCUCAACUAUGACACGCAAAACGCGUGCUCCGUUGAAUGGAGUUUAUCAUG | 0.803
GGAUCUUCUCGAUCUAACAAGAAAGACAAAUCUGCCACAAAGCUUGAGUGCAUCUUGGGAUGCAGAGGCGGCAGCCUUCGGUGGCGCGAUAGCGCCAACGUUCUCAACUAUGACACGCAAAACGCGUGCUCCGUUGAAUGGAGUUUAUCGUG | ≤ -4.2
GGAUCUUCUCGAUCUAACAAGAAAGACACAUCUGCCACAAAGCUUGAGAGCAUCUUCGGAUGCAGAGGCGGCAGCCUUCGGUGGCGCAAUACCGCGAACGUGCUCAUCUAUGACACGCAAAACGCGUGCUCCGUUGAAUGGAGUUUAUCAUG | ≤ -4.2
GGAUCUUCUCGAUCUAACAAGAAAGACAAAUCUGCCACAAAGCUUGAGCGCAUCUUCGGAUGCAGAGGCGGCAGCCUUCGGUGGCGCGAUAGGGCUAACGUUCUCAACUAUGACACGCAAAACGCGUGCUCCGUUGAAUGGAGUUUAUCAUG | ≤ -4.2
GGAUCUUCUCGAUCUAACAACAAAGACAAAUCUGCCACAAAGCUUGAGAGCAAGUUCGGAUGCAGAGGCGGCAGCGUUCGGUGGCGCGAUAGCGCCAACGUUGUCAACUAUGACACGCAAAACGCGUGCUCCUUUGAAUGGAGUUUAUCAUG | ≤ -4.2
GGAUCUUCUCGAUCUAACAAGAGAGACAAAUCUGCCACAAAGCUUGAGAGCAUCUUCCAAUGCAGAGGCGGCAGCCUUCGGUGGGGCGAUAGCGCCAACGUUAUCAAUUAUGACACGCAAAACGCGUGCUCCGUUGAAUGGAGUUUAUCAUG | ≤ -4.2
GGAUCUUCUCGAUCUAACAAGGAAGACAAAUCUGCCACAAAGCUUGCGAGAAUCUUCGGAUGCAGAGGCGGCACUCUUCGGUGGCGCGAUAGCGCCAACGUGCUCAACUAUGACACGCAAAACGCGUGCUCGGUUGAAUGGACUUUAUCAUG | ≤ -4.2
GGAUCUUCUCGAUCUAACAACAAAGACAAAUCUGCCACAAAGCUUGAGAGCAUCUGCGGAUCCAGAGGCGGCAGCCUUCGGUGGCGCGAUAGCGCCAACGGUCUCAACUAUGACACGCAAAACGCGUGCUCCGUUGAAUGGAGUUUAUCAUG | -3.54
GGAUCUUCUCGAUCUAACAAGAAAGACAAAUCUGCCACAAAGCUUGAGCGCAUCUUCGGAUGCAGAGGCGGCAGCCUUCGGUGACGCGAUAUCGCCUACGUUCUCAACUAUGACACGCAAAACGCGUGCUCCGUUGAGUGGAGUUUAUCAUG | ≤ -4.2
GGAUCUUCUCGAUCUAACAACAAAGACAAAACUGCCACAAAGCUUGAGCGCAUCUUCGGAAGCAGAGGCGGCAGCCUUCGGUGGCGCGAUAGUGCCAACGUUCUCAACUAUGACACGCAAAACGCGUGCUCCCUUGAAUGGAGUUUAUCAUG | ≤ -4.2
GGAUCUUCUCGAUCUAACAACAAAGACAAAUCUGCCACAAAGCUUGAGAGCAACUUCGGAUGCAGAGGUGGCAGCCUUCGGUGGCGCGAUAGCGCCAACGUUCUCAACUAUGACACGCAAAACGUGUGCUCCGUUGAAUGGAGUUUAUCAUG | -3.94
GGAUCUUCUCGAUCUAACAAGAAAGACAAAUCUGCCGCAAAGCUUGAGAGCAUCUUCGGAUGCAGAGGCGGCAGCCUUCGGUGGCGCGAUAGCGUCAACGUUCUCAACUAUGACGCGCAAAACGCGUGCUCCGUUGAAUGGACUUUAUCAUG | -3.82
GGAUCUUCUCGAUCUAACAAGAAUGACAAAUCUGCCACAAAGCUUGAGAACAUCUUAGGAUGCAGAGGCGGCAGCCUUCGGUGGCGGGAUAGGGCCAACGUUCUCAACUUUGACACGCAAUACGCGUGCUCCGUUGAAUGGAGUUUAUCAUG | -4.06
GGAUCUUCUCGAUCUAACAAGUAAGACAAAUCUGCCACAAAGCUUGAGAGCAACUUCGGAUGCAGAGGCGGCAGCCUUCGGUGGGGCGAUAGCGCCAACGUUCUCAACUAUGACACGCAAAACGCGUGCUCGGUUGAAUGGAGUUUAUCAUG | ≤ -4.2
GGAUCUUCUCGAUCUAACAAGAAAGUCAAAUCUGCCACAAAGCUUGAGAGCAUCUUCGGAUGCAGAGGCGGCAGCCUUCGGUGGCGAGAUAGCGCCAACGUUCUCAACUAUGACACGCAAAACGGGUGCUCCGUCGAAUGGAGUUCAUCAUG | ≤ -4.2
GGAUCUUCUCGAUCUAACAAGAAAGGCAAAUCUGCCAGAAAGCUUGAGAGCAUCUUCGGAUGCAGAGGCGGUAGCCUUCGGUGGCGGGUUAGCGCCAACGUUCUCAACUAUGACACGCAAAACGCGUGCUCCGUUGAAUGGAGUUUAUCGUG | ≤ -4.2
GGAUCUUCUCGAUCUAACAAGAAAGACAAGUCUGCCACAAAGCUUGAGAGCAUCUUCGGAUGCAGAGGCGGCAGCCUUCGGUGGCGCGAUAGCGCCAACGUUCUCAACUAUGACACGCAAAACGUGUGCUCCCUUGAAUGGAGUUUAUCAUG | ≤ -4.2
